# In paper PMC10400579, “FDW028, a novel FUT8 inhibitor, impels lysosomal proteolysis of B7-H3 via chaperone-mediated autophagy pathway and exhibits potent efficacy against metastatic colorectal cancer” (Cell Death & Disease, 2023):
# B1: B7-H3 (CD276): FDW028 (FUT8 inhibitor) (protein)
# parent chain: MLRRRGSPGMGVHVGAALGALWFCLTGALEVQVPEDPVVALVGTDATLCCSFSPEPGFSLAQLNLIWQLTDTKQLVHSFAEGQDQGSAYANRTALFPDLLAQGNASLRLQRVRVADEGSFTCFVSIRDFGSAAVSLQVAAPYSKPSMTLEPNKDLRPGDTVTITCSSYQGYPEAEVFWQDGQGVPLTGNVTTSQMANEQGLFDVHSILRVVLGANGTYSCLVRNPVLQQDAHSSVTITPQRSPTGAVEVQVPEDPVVALVGTDATLRCSFSPEPGFSLAQLNLIWQLTDTKQLVHSFTEGRDQGSAYANRTALFPDLLAQGNASLRLQRVRVADEGSFTCFVSIRDFGSAAVSLQVAAPYSKPSMTLEPNKDLRPGDTVTITCSSYRGYPEAEVFWQDGQGVPLTGNVTTSQMANEQGLFDVHSVLRVVLGANGTYSCLVRNPVLQQDAHGSVTITGQPMTFPPEALWVTVGLSVCLIALLVALAFVCWRKIKQSCEEENAGAEDQDGEGEGSKTALQPLKHSDSKEDDGQEIA
# B2: B7-H3 (CD276): FUT8 siRNA (protein)
# parent chain: MLRRRGSPGMGVHVGAALGALWFCLTGALEVQVPEDPVVALVGTDATLCCSFSPEPGFSLAQLNLIWQLTDTKQLVHSFAEGQDQGSAYANRTALFPDLLAQGNASLRLQRVRVADEGSFTCFVSIRDFGSAAVSLQVAAPYSKPSMTLEPNKDLRPGDTVTITCSSYQGYPEAEVFWQDGQGVPLTGNVTTSQMANEQGLFDVHSILRVVLGANGTYSCLVRNPVLQQDAHSSVTITPQRSPTGAVEVQVPEDPVVALVGTDATLRCSFSPEPGFSLAQLNLIWQLTDTKQLVHSFTEGRDQGSAYANRTALFPDLLAQGNASLRLQRVRVADEGSFTCFVSIRDFGSAAVSLQVAAPYSKPSMTLEPNKDLRPGDTVTITCSSYRGYPEAEVFWQDGQGVPLTGNVTTSQMANEQGLFDVHSVLRVVLGANGTYSCLVRNPVLQQDAHGSVTITGQPMTFPPEALWVTVGLSVCLIALLVALAFVCWRKIKQSCEEENAGAEDQDGEGEGSKTALQPLKHSDSKEDDGQEIA
# Columns and labels:
# [1] = immunoblot of B7-H3, SW480 and HCT-8; conditions: glycan changed form; control: control siRNA / untreated cells
# [2] = immunofluorescence colocalization, Pearson's R; conditions: glycan changed form; control: control siRNA / untreated cells
# [3] = CHX chase, B7-H3 remaining by immunoblot; conditions: glycan changed form; control: control siRNA
# [4] = cell surface biotinylation, membrane-fraction immunoblot; conditions: glycan changed form; control: control siRNA
Protein,expression_or_secretion [1],localisation_or_trafficking [2],degradation_or_half_life [3],expression_or_secretion [4]
B1,decreases,increases,,
B2,decreases,increases,decreases,decreases
